Experimental data as given in patent US20100041597A1, “PEPTIDES TARGETED TO PROTEIN KINASE C ISOFORMS AND USES THEREOF” (priority 2005, published 2010).

Legend:
[1] = target: PKC-βI (purified isoform) (Homo sapiens (Human)), P05771; experiment: competitive ELISA on purified PKC-βI vs anti-PKC-βI Ab; PRE 200 µM; settings: remark: other sources report otherwise
[2] = target: PKC-βI (purified isoform) (Homo sapiens (Human)), P05771; experiment: competitive ELISA on purified PKC-βI vs anti-PKC-βI Ab; PRE 50 µM; settings: remark: other sources report otherwise
[3] = target: PKC-βI (purified isoform) (Homo sapiens (Human)), P05771; experiment: competitive ELISA on purified PKC-βI vs anti-PKC-βI Ab; PRE 100 µM; settings: remark: other sources report otherwise
[4] = target: PKC-βI (purified isoform) (Homo sapiens (Human)) (UniProt P05771); experiment: competitive ELISA on purified PKC-βI vs anti-PKC-βI Ab; PRE 50 µM
PKC-βI (purified isoform) (Homo sapiens (Human)), sequence (P05771 2-671 limits assumed): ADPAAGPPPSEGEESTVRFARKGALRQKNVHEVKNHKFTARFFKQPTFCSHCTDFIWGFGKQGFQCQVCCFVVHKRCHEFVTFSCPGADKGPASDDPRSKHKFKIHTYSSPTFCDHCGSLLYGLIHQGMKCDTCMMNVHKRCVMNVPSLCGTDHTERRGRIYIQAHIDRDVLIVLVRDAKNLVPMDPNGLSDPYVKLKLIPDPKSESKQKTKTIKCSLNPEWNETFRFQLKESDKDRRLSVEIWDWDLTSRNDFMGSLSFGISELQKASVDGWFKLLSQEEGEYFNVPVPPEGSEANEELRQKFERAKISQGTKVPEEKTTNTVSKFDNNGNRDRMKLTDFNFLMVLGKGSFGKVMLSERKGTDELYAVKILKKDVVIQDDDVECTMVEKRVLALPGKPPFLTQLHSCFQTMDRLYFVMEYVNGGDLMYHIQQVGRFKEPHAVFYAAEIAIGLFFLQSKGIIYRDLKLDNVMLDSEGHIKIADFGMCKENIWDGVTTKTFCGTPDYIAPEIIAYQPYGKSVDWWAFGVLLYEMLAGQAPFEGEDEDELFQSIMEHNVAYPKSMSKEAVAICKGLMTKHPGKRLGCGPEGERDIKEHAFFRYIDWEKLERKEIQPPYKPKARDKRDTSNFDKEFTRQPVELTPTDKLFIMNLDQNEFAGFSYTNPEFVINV

[5] = target: PKC-βI (purified isoform) (Homo sapiens (Human)) (UniProt P05771); experiment: competitive ELISA on purified PKC-βI vs anti-PKC-βI Ab; PRE 200 µM
[6] = target: PKC-βI (purified isoform) (Homo sapiens (Human)) (UniProt P05771); experiment: competitive ELISA on purified PKC-βI vs anti-PKC-βI Ab; PRE 100 µM
[7] = target: PKC-δ (purified isoform) (Homo sapiens (Human)) (UniProt Q05655); experiment: competitive ELISA on purified PKC-δ vs anti-PKC-δ Ab; PRE 200 µM
PKC-δ (purified isoform) (Homo sapiens (Human)), sequence (Q05655 whole entry, stated change not applied, canonical isoform): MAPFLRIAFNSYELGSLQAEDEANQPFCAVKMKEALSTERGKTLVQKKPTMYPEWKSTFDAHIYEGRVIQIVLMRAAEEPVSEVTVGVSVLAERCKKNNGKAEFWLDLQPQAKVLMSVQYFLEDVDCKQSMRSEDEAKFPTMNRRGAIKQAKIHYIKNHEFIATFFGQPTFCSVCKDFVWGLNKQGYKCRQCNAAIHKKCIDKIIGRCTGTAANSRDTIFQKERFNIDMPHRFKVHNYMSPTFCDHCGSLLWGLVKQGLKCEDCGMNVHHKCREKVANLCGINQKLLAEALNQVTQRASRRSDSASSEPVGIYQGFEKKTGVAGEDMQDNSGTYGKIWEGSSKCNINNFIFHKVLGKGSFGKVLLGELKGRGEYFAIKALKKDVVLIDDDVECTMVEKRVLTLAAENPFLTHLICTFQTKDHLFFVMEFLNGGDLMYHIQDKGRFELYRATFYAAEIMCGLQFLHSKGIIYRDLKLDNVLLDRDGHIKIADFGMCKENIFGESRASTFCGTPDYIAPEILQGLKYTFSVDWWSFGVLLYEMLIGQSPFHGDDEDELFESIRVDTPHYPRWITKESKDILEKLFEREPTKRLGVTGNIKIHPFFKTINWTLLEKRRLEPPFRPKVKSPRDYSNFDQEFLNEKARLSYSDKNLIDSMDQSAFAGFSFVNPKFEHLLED

[8] = target: PKC-δ (purified isoform) (Homo sapiens (Human)) (UniProt Q05655); experiment: competitive ELISA on purified PKC-δ vs anti-PKC-δ Ab; PRE 50 µM
[9] = target: PKC-δ (purified isoform) (Homo sapiens (Human)) (UniProt Q05655); experiment: competitive ELISA on purified PKC-δ vs anti-PKC-δ Ab; PRE 100 µM
[10] = target: PKC-βII (purified isoform) (Homo sapiens (Human)) (UniProt P05771); experiment: competitive ELISA on purified PKC-βII vs anti-PKC-βII Ab; PRE 200 µM
PKC-βII (purified isoform) (Homo sapiens (Human)), sequence (P05771 other isoform, or with tags, fused parts or gaps limits assumed): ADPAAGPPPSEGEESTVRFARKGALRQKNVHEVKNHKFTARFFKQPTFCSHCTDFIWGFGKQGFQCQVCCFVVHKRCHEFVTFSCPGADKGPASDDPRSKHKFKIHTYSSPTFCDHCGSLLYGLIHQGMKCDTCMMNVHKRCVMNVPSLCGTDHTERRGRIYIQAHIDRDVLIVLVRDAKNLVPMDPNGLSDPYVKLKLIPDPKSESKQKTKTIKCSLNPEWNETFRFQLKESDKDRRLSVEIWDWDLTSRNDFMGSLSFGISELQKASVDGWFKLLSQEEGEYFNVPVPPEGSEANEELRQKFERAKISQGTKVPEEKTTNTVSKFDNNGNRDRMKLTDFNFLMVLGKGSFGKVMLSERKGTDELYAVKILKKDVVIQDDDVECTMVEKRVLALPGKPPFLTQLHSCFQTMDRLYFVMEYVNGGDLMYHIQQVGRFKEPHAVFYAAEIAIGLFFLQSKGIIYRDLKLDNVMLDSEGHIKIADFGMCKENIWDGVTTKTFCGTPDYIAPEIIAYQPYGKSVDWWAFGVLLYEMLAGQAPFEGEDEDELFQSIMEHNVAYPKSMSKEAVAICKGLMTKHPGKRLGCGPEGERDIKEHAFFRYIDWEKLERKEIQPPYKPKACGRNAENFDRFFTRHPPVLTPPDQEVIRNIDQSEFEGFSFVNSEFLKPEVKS

[11] = target: PKC-βII (purified isoform) (Homo sapiens (Human)) (UniProt P05771); experiment: competitive ELISA on purified PKC-βII vs anti-PKC-βII Ab; PRE 100 µM
[12] = target: PKC-βII (purified isoform) (Homo sapiens (Human)) (UniProt P05771); experiment: competitive ELISA on purified PKC-βII vs anti-PKC-βII Ab; PRE 50 µM
[13] = target: PKC-ε (purified isoform) (Homo sapiens (Human)) (UniProt Q02156); experiment: competitive ELISA on purified PKC-ε vs anti-PKC-ε Ab; PRE 50 µM
PKC-ε (purified isoform) (Homo sapiens (Human)), sequence (Q02156 whole entry, canonical isoform): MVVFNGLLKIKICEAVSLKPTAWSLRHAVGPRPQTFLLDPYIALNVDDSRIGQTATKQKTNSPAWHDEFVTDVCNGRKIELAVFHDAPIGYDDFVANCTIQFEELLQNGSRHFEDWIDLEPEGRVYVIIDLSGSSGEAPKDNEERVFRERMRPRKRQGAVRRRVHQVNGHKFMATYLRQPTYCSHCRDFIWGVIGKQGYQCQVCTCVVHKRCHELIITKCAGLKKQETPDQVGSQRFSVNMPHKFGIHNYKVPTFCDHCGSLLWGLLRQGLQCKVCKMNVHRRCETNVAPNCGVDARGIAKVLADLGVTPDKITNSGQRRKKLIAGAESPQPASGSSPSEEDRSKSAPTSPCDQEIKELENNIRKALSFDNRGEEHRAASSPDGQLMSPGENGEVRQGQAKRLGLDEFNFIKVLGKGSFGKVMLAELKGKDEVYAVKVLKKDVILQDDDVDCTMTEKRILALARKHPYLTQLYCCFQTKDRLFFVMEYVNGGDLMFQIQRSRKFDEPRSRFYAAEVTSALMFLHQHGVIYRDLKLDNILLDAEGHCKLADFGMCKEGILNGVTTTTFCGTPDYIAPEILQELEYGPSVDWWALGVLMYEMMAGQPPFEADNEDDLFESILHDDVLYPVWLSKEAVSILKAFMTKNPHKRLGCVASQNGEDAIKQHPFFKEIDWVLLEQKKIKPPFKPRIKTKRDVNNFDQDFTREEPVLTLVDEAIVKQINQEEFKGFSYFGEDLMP

[14] = target: PKC-ε (purified isoform) (Homo sapiens (Human)) (UniProt Q02156); experiment: competitive ELISA on purified PKC-ε vs anti-PKC-ε Ab; PRE 100 µM
[15] = target: PKC-ε (purified isoform) (Homo sapiens (Human)) (UniProt Q02156); experiment: competitive ELISA on purified PKC-ε vs anti-PKC-ε Ab; PRE 200 µM

PKC-βI (purified isoform) (Homo sapiens (Human)), P05771, sequence (P05771 2-671 limits assumed): as the sequence (P05771 2-671 limits assumed) above

binding capacity (%) [4] [%]	binding capacity (%) [5] [%]	binding capacity (%) [6] [%]	binding capacity (%) [10] [%]	binding capacity (%) [11] [%]	binding capacity (%) [12] [%]	Binder	further results
–	–	–	–	–	–	ILEDKGGDAQNLIGISI [PRE 8]	binding capacity (%) [1]: 0%; binding capacity (%) [2]: 0%; binding capacity (%) [3]: 0%
0	0	0	–	–	–	Ac-AKGIQEVKGGKDAQNLIGISI-NH2 [PRE 5]	–
3.77	0	4.35	–	–	–	Ac-ISIGILNQADK-NH2 [PRE 10]	binding capacity (%) [7]: 9.47%; binding capacity (%) [8]: 0%; binding capacity (%) [9]: 0%
–	–	–	2.59	11.1	5.42	Ac-ISIGILQNADK-NH2 [PRE 7]	–
9.86	12.5	14.2	6.4	11	7.14	Ac-RDAQNLIGISI-NH2 [PRE 11]	–
–	–	–	–	–	–	RRKKGGKDFVVKR [PRE 1]	binding capacity (%) [13]: 19.8%; binding capacity (%) [14]: 5.47%; binding capacity (%) [15]: 0.83%
